Test results taken from patent US20030099654.

Columns and labels:
125I-prothrombin [1] = tested on: 125I-prothrombin
125I-prothrombin [2] = target: 125I-prothrombin; remark: listed apart in the source

Molecule: Human Factor Xa
- prothrombin cleavage assay (125I-prothrombin, 10% SDS-PAGE, autoradiography); positive control (125I-prothrombin [1]): Addition of human factor X in the presence of calcium and factor V produced cleavage products corresponding to known derivatives of prothrombin

B1: mfgl2 fusion protein (murine fgl2 with six histidine residues followed by an enterokinase site at the N-terminus) (protein)
chain: VEEHNLTEGLEDASAQAACPARLEGSGRCEGSQCPFQLTLPTLTIQLPRQLGSMEEVLKEVRTLKEAVDSLKKSCQDCKLQADDHRDPGGNGGNGAETAEDSRVQELESQVNKLSSELKNAKDQIQGLQGRLETLHLVNMNNIENYVDNKVANLTVVVNSLDGKCSKCPSQEHMQSQPVQHLIYKDCSDHYVLGRRSSGAYRVTPDHRNSSFEVYCDMETMGGGWTVLQARLDGSTNFTREWKDYKAGFGNLEREFWLGNDKIHLLTKSKEMILRIDLEDFNGLTLYALYDQFYVANEFLKYRLHIGNYNGTAGDALRFSRHYNHDLRFFTTPDRDNDRYPSGNCGLYYSSGWWFDSCLSANLNGKYYHQKYKGVRNGIFWGTWPGINQAQPGGYKSSFKQAKMMIRPKNFKP
- one-stage clotting assay (PCA) in coagulation factor-deficient human plasmas (125I-prothrombin [2]): The PCA expressed by recombinant virus infected cells was independent of all factors except 11 (prothrombin)
- prothrombin cleavage assay (125I-prothrombin, 10% SDS-PAGE, autoradiography); purified mfgl2 fusion protein (125I-prothrombin [2]): incubation of 1251-prothrombin with uninfected High 5 cell homogenates or purified protein exhibited no prothrombin cleavage
